Data as given in patent publication US20260241049A1, “Radiopharmaceutical Compositions Targeting Glypican-3 and Uses Thereof” (RayzeBio, Inc., priority 2023, published 2026).
Starred links: 1 amine or outer side, 2 acyl side, 3 side chain; linkers in the order of their positions; H or OH if unused. Positions of bridges follow the written chain, without caps; N, C: chain ends. Non-standard residues stand in square brackets, D forms with d. Groups on a side chain read outwards from the residue. Primed or numbered codes have the meaning given here. *: point of attachment. MeKCOpipzaa″ = (2S)-6-{[4-(carboxymethyl)piperazine-1-carbonyl]amino}-2-(methylamino)hexanoic acid, CN([C@@H](CCCCNC(=O)N1CCN(CC(=O)[*:3])CC1)C(=O)[*:2])[*:1]; MeA4paa = 3-(1-(carboxymethyl)piperidin-4-yl)-2-(methylamino)propanoic acid, CN([C@@H](CC1CCN(CC(=O)[*:3])CC1)C(=O)[*:2])[*:1]; MeHseMe(3) = N-methyl-O-methyl-homoserine, 4-methoxy-2-(methylamino)butanoic acid, COCC[C@@H](C(=O)[*:2])N(C)[*:1]; F4aao″ = 2-amino-3-(4-(carboxymethoxy)phenyl)propanoic acid, O=C([C@H](Cc1ccc(OCC(=O)[*:3])cc1)N[*:1])[*:2]; TMe(3) = O-methyl-L-threonine ((2S,3R)-2-amino-3-methoxybutanoic acid), CO[C@H](C)[C@H](N[*:1])C(=O)[*:2]; F4aao = 4-(carboxymethoxy)-L-phenylalanine, O=C([C@H](Cc1ccc(OCC(=O)[*:3])cc1)N[*:1])[*:2]; MeHseMe = N-methyl-O-methyl-L-homoserine, COCC[C@@H](C(=O)[*:2])N(C)[*:1]; Hgn = 2,6-diamino-6-oxohexanoic acid, NC(=O)CCC[C@H](N[*:1])C(=O)[*:2]; Phe(4-(1-Me-pyrazol-4-yl)) = Cn1cc(-c2ccc(C[C@H](N)C(=O)O)cc2)cn1; TMe = O-methyl-L-threonine, CO[C@H](C)[C@H](N[*:1])C(=O)[*:2]; NMeAla(isoquinolin-7-yl) = CN[C@@H](Cc1ccc2ccncc2c1)C(=O)O; PEG12 = NCCOCCOCCOCCOCCOCCOCCOCCOCCOCCOCCOCCOCCC(=O)O; Phe(4-CH2COOH) = N[C@@H](Cc1ccc(CC(=O)O)cc1)C(=O)O; 3Pal(6-Ph) = N[C@@H](Cc1ccc(-c2ccccc2)nc1)C(=O)O; Biotin = O=C1N[C@H]2[C@H](CS[C@H]2CCCCC(=O)*)N1; Phe(4-COOH) = N[C@@H](Cc1ccc(C(=O)O)cc1)C(=O)O; NMe2Nal = CN[C@@H](Cc1ccc2ccccc2c1)C(=O)O; AEF = NCCOc1ccc(C[C@H](N)C(=O)O)cc1; NMe3Pal = CN[C@@H](Cc1cccnc1)C(=O)O; NMeY = CN[C@@H](Cc1ccc(O)cc1)C(=O)O; NMeI = CC[C@H](C)[C@H](NC)C(=O)O; aIle = CC[C@@H](C)[C@H](N)C(=O)O; NMeQ = CN[C@@H](CCC(N)=O)C(=O)O; NMeK = CN[C@@H](CCCCN)C(=O)O; NMeC = CN[C@@H](CS)C(=O)O; NMeA = CN[C@@H](C)C(=O)O; MeK = methyl-L-lysine

The binders below were run against T1, Human Glypican3-Fc (ACRO Biosystems, GP3-H5258) (human, UniProt P51654 25-559) (assay: SPR (Biacore T200), Method B-3: Glypican3-Fc captured on Protein A chip, peptide as analyte).
T1 construct: Bought fusion protein, captured in Methods B-2, B-3 and B-4; Catalogue number is printed only in Method B-2; not shown: Fc part of the bought fusion
Experimental: A Protein A sensor chip (Cytiva) was inserted into a Biacore T200 (Cytiva), priming was performed three times with a running buffer: HBS-P+, pH 7.4 (Cytiva), and equilibration was carried out at a flow rate of 30 μL/min. Glypican3-Fc was allowed to react for 60 seconds at a flow rate of 10 μL/min. After capturing human Glypican3-Fe, a peptide solution prepared to 10 mM in DMSO solution was diluted with a running buffer to a final concentration of 10 μM. […] Using the above samples, peptide kinetics for Glypican3 was obtained by SPR measurement. Kinetics evaluation of Glypican3 was performed by SPR measurements at a flow rate of 10 LL/min, setting the association time to 120 seconds and the disassociation time to 600 seconds.
The obtained data by Method B-1, Method B-2, Method B-3 and Method B-4 were analyzed by follow. Single Cycle Kinetics was used as the kinetics evaluation model, and curve fitting was performed using Biacore T200 Evaluation Software Version 3.0 (Cytiva).

| Binder | Kd |
| --- | --- |
| {CH2CO}-[NMeK][NMeI]D[NMeQ][Phe(4-COOH)][TMe]I[F4aao″][NMeAla(isoquinolin-7-yl)]G[3Pal(6-Ph)][NMeC]E-NH2 (thioether N-12; SMILES CC[C@H](C)[C@@H]1NC(=O)[C@H]([C@@H](C)OC)NC(=O)[C@H](Cc2ccc(C(=O)O)cc2)NC(=O)[C@H](CCC(N)=O)N(C)C(=O)[C@H](CC(=O)O)NC(=O)[C@H]([C@@H](C)CC)N(C)C(=O)[C@H](CCCCN)N(C)C(=O)CSC[C@@H](C(=O)N[C@@H](CCC(=O)O)C(N)=O)N(C)C(=O)[C@H](Cc2ccc(-c3ccccc3)nc2)NC(=O)CNC(=O)[C@H](Cc2ccc3ccncc3c2)N(C)C(=O)[C@H](Cc2ccc(OCC(=O)O)cc2)NC1=O) [Macrocyclic peptide of Example 2-43 (SEQ ID No. 32)] | 9.3 nM |
| {CH2CO}-[NMeQ][NMeQ]D[NMeQ][AEF]II[Phe(4-CH2COOH)][NMe2Nal]G[Phe(4-(1-Me-pyrazol-4-yl))][NMeC]-NH2 (thioether N-12; SMILES CC[C@H](C)[C@@H]1NC(=O)[C@H](Cc2ccc(OCCN)cc2)NC(=O)[C@H](CCC(N)=O)N(C)C(=O)[C@H](CC(=O)O)NC(=O)[C@H](CCC(N)=O)N(C)C(=O)[C@H](CCC(N)=O)N(C)C(=O)CSC[C@@H](C(N)=O)N(C)C(=O)[C@H](Cc2ccc(-c3cnn(C)c3)cc2)NC(=O)CNC(=O)[C@H](Cc2ccc3ccccc3c2)N(C)C(=O)[C@H](Cc2ccc(CC(=O)O)cc2)NC(=O)[C@H]([C@@H](C)CC)NC1=O) [Macrocyclic peptide of Example 2-56 (SEQ ID No. 27)] | 7.9 nM |
| {CH2CO}-[NMeK]([PEG12-Biotin])[NMeI]D[NMeQ][Phe(4-COOH)][TMe]I[F4aao][NMeAla(isoquinolin-7-yl)]G[3Pal(6-Ph)][NMeC]-NH2 (thioether N-12; SMILES CC[C@H](C)[C@@H]1NC(=O)[C@H]([C@@H](C)OC)NC(=O)[C@H](Cc2ccc(C(=O)O)cc2)NC(=O)[C@H](CCC(N)=O)N(C)C(=O)[C@H](CC(=O)O)NC(=O)[C@H]([C@@H](C)CC)N(C)C(=O)[C@H](CCCCNC(=O)CCOCCOCCOCCOCCOCCOCCOCCOCCOCCOCCOCCOCCNC(=O)CCCC[C@@H]2SC[C@@H]3NC(=O)N[C@@H]32)N(C)C(=O)CSC[C@@H](C(N)=O)N(C)C(=O)[C@H](Cc2ccc(-c3ccccc3)nc2)NC(=O)CNC(=O)[C@H](Cc2ccc3ccncc3c2)N(C)C(=O)[C@H](Cc2ccc(OCC(=O)O)cc2)NC1=O) [PLB-30] | 0.75 nM |
| {CH2CO}-K[MeHseMe]D[NMeQ][Phe(4-COOH)][TMe]IY[NMeAla(isoquinolin-7-yl)]G[3Pal(6-Ph)][NMeC]-NH2 (thioether N-12; not fully specified (residue 1); printed as MeK-MeHseMe-D-MeQ-F4COO-TMe-I-Y-MeNal27N-G-3Py6Ph-MeC-NH2, SulfoCy5 conjugate) [PLD-45] | 0.88 nM |
| {CH2CO}-[MeK][NMeQ][Hgn][NMeQ][Phe(4-COOH)][TMe(3)]IY[NMe2Nal]G[Phe(4-(1-Me-pyrazol-4-yl))][NMeC]-NH2 (thioether N-12) [Macrocyclic peptide of Example 2-54 (SEQ ID No. 29)] | 0.1 nM |
| {CH2CO}-[NMeQ][NMeQ]D[NMeQ][Phe(4-COOH)]II[AEF]([PEG12-Biotin])[NMe2Nal]G[Phe(4-(1-Me-pyrazol-4-yl))][NMeC]-NH2 (thioether N-12; SMILES CC[C@H](C)[C@@H]1NC(=O)[C@H](Cc2ccc(C(=O)O)cc2)NC(=O)[C@H](CCC(N)=O)N(C)C(=O)[C@H](CC(=O)O)NC(=O)[C@H](CCC(N)=O)N(C)C(=O)[C@H](CCC(N)=O)N(C)C(=O)CSC[C@@H](C(N)=O)N(C)C(=O)[C@H](Cc2ccc(-c3cnn(C)c3)cc2)NC(=O)CNC(=O)[C@H](Cc2ccc3ccccc3c2)N(C)C(=O)[C@H](Cc2ccc(OCCNC(=O)CCOCCOCCOCCOCCOCCOCCOCCOCCOCCOCCOCCOCCNC(=O)CCCC[C@@H]3SC[C@@H]4NC(=O)N[C@@H]43)cc2)NC(=O)[C@H]([C@@H](C)CC)NC1=O) [PLB-28] | 1.53 nM |
| {CH2CO}-[NMeA][NMe3Pal]DY[aIle]IY[NMe2Nal]G[3Pal(6-Ph)][NMeC]-NH2 (thioether N-11; SMILES CC[C@@H](C)[C@@H]1NC(=O)[C@H](Cc2ccc(O)cc2)NC(=O)[C@H](CC(=O)O)NC(=O)[C@H](Cc2cccnc2)N(C)C(=O)[C@H](C)N(C)C(=O)CSC[C@@H](C(N)=O)N(C)C(=O)[C@H](Cc2ccc(-c3ccccc3)nc2)NC(=O)CNC(=O)[C@H](Cc2ccc3ccccc3c2)N(C)C(=O)[C@H](Cc2ccc(O)cc2)NC(=O)[C@H]([C@@H](C)CC)NC1=O, 11 residues) [Macrocyclic peptide of Example 2-44 (SEQ ID No. 69)] | 49.1 nM |
| {CH2CO}-[NMeQ][NMeQ]D[MeK][Phe(4-COOH)]II[Phe(4-CH2COOH)][NMe2Nal]G[Phe(4-(1-Me-pyrazol-4-yl))][NMeC]-NH2 (thioether N-12) [Macrocyclic peptide of Example 2-52 (SEQ ID No. 26)] | 1.6 nM |
| {CH2CO}-[NMeK][NMeI]D[NMeQ][Phe(4-COOH)][TMe]I[F4aao″][NMeAla(isoquinolin-7-yl)]G[3Pal(6-Ph)][NMeC][dE]-NH2 (thioether N-12; SMILES CC[C@H](C)[C@@H]1NC(=O)[C@H]([C@@H](C)OC)NC(=O)[C@H](Cc2ccc(C(=O)O)cc2)NC(=O)[C@H](CCC(N)=O)N(C)C(=O)[C@H](CC(=O)O)NC(=O)[C@H]([C@@H](C)CC)N(C)C(=O)[C@H](CCCCN)N(C)C(=O)CSC[C@@H](C(=O)N[C@H](CCC(=O)O)C(N)=O)N(C)C(=O)[C@H](Cc2ccc(-c3ccccc3)nc2)NC(=O)CNC(=O)[C@H](Cc2ccc3ccncc3c2)N(C)C(=O)[C@H](Cc2ccc(OCC(=O)O)cc2)NC1=O) [Macrocyclic peptide of Example 2-42 (SEQ ID No. 31)] | 3.2 nM |
| {CH2CO}-[MeK][MeHseMe(3)]D[NMeQ][Phe(4-COOH)]II[Phe(4-CH2COOH)][NMe2Nal]G[Phe(4-(1-Me-pyrazol-4-yl))][NMeC]-NH2 (thioether N-12) [Macrocyclic peptide of Example 2-48 (SEQ ID No. 22)] | 0.5 nM |
| {CH2CO}-[MeKCOpipzaa″][NMeA]D[NMeY][Phe(4-COOH)][TMe]I[AEF][NMeY]G[3Pal(6-Ph)][NMeC]-NH2 (thioether N-12; SMILES CC[C@H](C)[C@@H]1NC(=O)[C@H]([C@@H](C)OC)NC(=O)[C@H](Cc2ccc(C(=O)O)cc2)NC(=O)[C@H](Cc2ccc(O)cc2)N(C)C(=O)[C@H](CC(=O)O)NC(=O)[C@H](C)N(C)C(=O)[C@H](CCCCNC(=O)N2CCN(CC(=O)O)CC2)N(C)C(=O)CSC[C@@H](C(N)=O)N(C)C(=O)[C@H](Cc2ccc(-c3ccccc3)nc2)NC(=O)CNC(=O)[C@H](Cc2ccc(O)cc2)N(C)C(=O)[C@H](Cc2ccc(OCCN)cc2)NC1=O) [Macrocyclic peptide of Example 2-55 (SEQ ID No. 56)] | 5.3 nM |
| KIDQFIIYFGXCG (not fully specified; MeKAc-MeI-D-MeQ-F4COO-I-I-Y-MeNal27N-G-3Py6Ph-MeC-G-PEG12c-K(biotin)-NH2 by Table 13 (Table 1 prints PEG10c and K at positions 14 and 15 of SEQ ID No. 60); thioether ring from N-terminal acetyl to MeC12, Biotin on the C-terminal tail outside the ring) [PLB-60] | 0.11 nM |
| {CH2CO}-[MeK][MeHseMe(3)]D[NMeQ][Phe(4-COOH)]II[Phe(4-CH2COOH)][NMe2Nal]G[3Pal(6-Ph)][NMeC]-NH2 (thioether N-12) [Macrocyclic peptide of Example 2-47 (SEQ ID No. 21)] | 0.2 nM |
| {CH2CO}-[MeK][NMeI]Q[NMeQ][Phe(4-COOH)]II[Phe(4-COOH)][NMe2Nal]G[Phe(4-(1-Me-pyrazol-4-yl))][NMeC]-NH2 (thioether N-12) [Macrocyclic peptide of Example 2-46 (SEQ ID No. 6)] | 0.2 nM |
| {CH2CO}-[NMeA][NMeY]DY[TMe]IY[NMe2Nal]G[3Pal(6-Ph)][NMeC]-NH2 (thioether N-11; SMILES CC[C@H](C)[C@@H]1NC(=O)[C@H]([C@@H](C)OC)NC(=O)[C@H](Cc2ccc(O)cc2)NC(=O)[C@H](CC(=O)O)NC(=O)[C@H](Cc2ccc(O)cc2)N(C)C(=O)[C@H](C)N(C)C(=O)CSC[C@@H](C(N)=O)N(C)C(=O)[C@H](Cc2ccc(-c3ccccc3)nc2)NC(=O)CNC(=O)[C@H](Cc2ccc3ccccc3c2)N(C)C(=O)[C@H](Cc2ccc(O)cc2)NC1=O, 11 residues) [Macrocyclic peptide of Example 2-40 (SEQ ID No. 66)] | 21.5 nM |
| {CH2CO}-[NMeQ][NMeQ]D[NMeQ][Phe(4-COOH)]II[AEF][NMe2Nal]G[Phe(4-(1-Me-pyrazol-4-yl))][NMeC]-NH2 (thioether N-12; SMILES CC[C@H](C)[C@@H]1NC(=O)[C@H](Cc2ccc(C(=O)O)cc2)NC(=O)[C@H](CCC(N)=O)N(C)C(=O)[C@H](CC(=O)O)NC(=O)[C@H](CCC(N)=O)N(C)C(=O)[C@H](CCC(N)=O)N(C)C(=O)CSC[C@@H](C(N)=O)N(C)C(=O)[C@H](Cc2ccc(-c3cnn(C)c3)cc2)NC(=O)CNC(=O)[C@H](Cc2ccc3ccccc3c2)N(C)C(=O)[C@H](Cc2ccc(OCCN)cc2)NC(=O)[C@H]([C@@H](C)CC)NC1=O) [Macrocyclic peptide of Example 2-53 (SEQ ID No. 28)] | 1 nM |
| {CH2CO}-[MeK][NMeQ]D[MeA4paa][Phe(4-COOH)][TMe(3)]I[Phe(4-CH2COOH)][NMe2Nal]G[Phe(4-(1-Me-pyrazol-4-yl))][NMeC]-NH2 (thioether N-12) [Macrocyclic peptide of Example 2-51 (SEQ ID No. 25)] | 2.5 nM |
